No end group written: not given here. fluorescein = N-terminal fluorescein probe
T1: C3G (full-length, residues 4-1077) (human, UniProt Q13905-1 4-1077)
T1 construct: also called C3G WT; RapGEF1; source: E. coli BL21 (DE3), purified (IMAC, TEV digestion, reversed IMAC, SEC); not shown: His, N-terminal, cleaved; Halo, N-terminal, cleaved
T1 sequence (looked up): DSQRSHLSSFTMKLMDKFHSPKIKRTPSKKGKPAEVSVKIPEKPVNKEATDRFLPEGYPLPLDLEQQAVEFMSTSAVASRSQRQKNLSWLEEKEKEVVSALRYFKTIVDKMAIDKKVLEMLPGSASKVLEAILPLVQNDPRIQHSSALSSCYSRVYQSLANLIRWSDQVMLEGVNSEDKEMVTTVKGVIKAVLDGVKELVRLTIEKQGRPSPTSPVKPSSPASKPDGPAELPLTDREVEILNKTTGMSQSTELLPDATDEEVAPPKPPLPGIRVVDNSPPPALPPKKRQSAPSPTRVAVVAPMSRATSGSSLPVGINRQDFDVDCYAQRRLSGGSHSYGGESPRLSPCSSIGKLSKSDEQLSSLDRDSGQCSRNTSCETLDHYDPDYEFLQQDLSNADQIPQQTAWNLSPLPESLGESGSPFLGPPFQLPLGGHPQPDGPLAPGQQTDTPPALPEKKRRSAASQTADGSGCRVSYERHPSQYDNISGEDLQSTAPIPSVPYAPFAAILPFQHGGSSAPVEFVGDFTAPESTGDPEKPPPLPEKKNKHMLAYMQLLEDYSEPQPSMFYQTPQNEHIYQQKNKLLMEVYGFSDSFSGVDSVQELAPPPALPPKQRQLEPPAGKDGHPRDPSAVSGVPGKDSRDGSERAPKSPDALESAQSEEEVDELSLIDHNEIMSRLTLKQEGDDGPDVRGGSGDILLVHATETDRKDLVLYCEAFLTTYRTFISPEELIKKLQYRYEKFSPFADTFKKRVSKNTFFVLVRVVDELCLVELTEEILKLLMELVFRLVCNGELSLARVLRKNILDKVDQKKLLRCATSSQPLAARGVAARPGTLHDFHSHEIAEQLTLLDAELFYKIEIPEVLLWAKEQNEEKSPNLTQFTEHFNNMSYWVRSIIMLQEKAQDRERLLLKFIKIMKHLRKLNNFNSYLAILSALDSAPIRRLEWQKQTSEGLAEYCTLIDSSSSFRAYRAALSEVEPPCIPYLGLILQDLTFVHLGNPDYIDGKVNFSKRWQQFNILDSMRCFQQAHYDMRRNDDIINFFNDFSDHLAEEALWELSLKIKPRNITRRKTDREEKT

T2: Src-phosphorylated C3G (pC3G), wild type (human, UniProt Q13905-1 4-1077, phosphotyrosines (phosphorylated in vitro by Src; sites not stated))
T2 sequence (looked up): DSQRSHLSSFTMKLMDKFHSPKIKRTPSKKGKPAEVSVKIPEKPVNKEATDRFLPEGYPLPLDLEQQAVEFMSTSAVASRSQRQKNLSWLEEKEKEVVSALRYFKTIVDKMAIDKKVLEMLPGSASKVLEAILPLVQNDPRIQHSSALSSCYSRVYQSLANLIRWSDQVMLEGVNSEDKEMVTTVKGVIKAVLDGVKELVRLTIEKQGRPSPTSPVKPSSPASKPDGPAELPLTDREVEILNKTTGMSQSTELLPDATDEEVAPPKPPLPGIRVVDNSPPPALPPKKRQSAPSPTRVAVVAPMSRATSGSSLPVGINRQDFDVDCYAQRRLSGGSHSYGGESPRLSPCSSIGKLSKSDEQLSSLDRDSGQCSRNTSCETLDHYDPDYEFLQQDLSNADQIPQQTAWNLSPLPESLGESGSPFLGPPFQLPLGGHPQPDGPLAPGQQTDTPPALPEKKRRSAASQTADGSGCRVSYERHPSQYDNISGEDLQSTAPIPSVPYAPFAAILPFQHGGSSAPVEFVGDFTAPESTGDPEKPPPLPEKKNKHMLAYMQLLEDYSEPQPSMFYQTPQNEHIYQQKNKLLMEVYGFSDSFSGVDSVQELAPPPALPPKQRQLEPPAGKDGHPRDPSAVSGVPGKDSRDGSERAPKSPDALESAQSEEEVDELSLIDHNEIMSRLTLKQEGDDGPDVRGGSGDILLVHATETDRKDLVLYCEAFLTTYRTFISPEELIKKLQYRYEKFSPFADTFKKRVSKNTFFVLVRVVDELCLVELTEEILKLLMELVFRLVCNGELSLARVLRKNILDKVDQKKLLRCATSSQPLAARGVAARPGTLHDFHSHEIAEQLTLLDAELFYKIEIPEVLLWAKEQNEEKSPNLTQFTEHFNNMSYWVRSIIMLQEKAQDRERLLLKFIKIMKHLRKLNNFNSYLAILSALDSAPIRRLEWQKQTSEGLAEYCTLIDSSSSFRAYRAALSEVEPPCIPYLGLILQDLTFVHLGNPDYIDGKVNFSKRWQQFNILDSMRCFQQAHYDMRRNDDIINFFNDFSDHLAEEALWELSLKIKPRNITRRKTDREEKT

T3: C3G full-length wild type (human, isoform a, residues 4-1077) (human, UniProt Q13905-1 4-1077)
T3 sequence (looked up): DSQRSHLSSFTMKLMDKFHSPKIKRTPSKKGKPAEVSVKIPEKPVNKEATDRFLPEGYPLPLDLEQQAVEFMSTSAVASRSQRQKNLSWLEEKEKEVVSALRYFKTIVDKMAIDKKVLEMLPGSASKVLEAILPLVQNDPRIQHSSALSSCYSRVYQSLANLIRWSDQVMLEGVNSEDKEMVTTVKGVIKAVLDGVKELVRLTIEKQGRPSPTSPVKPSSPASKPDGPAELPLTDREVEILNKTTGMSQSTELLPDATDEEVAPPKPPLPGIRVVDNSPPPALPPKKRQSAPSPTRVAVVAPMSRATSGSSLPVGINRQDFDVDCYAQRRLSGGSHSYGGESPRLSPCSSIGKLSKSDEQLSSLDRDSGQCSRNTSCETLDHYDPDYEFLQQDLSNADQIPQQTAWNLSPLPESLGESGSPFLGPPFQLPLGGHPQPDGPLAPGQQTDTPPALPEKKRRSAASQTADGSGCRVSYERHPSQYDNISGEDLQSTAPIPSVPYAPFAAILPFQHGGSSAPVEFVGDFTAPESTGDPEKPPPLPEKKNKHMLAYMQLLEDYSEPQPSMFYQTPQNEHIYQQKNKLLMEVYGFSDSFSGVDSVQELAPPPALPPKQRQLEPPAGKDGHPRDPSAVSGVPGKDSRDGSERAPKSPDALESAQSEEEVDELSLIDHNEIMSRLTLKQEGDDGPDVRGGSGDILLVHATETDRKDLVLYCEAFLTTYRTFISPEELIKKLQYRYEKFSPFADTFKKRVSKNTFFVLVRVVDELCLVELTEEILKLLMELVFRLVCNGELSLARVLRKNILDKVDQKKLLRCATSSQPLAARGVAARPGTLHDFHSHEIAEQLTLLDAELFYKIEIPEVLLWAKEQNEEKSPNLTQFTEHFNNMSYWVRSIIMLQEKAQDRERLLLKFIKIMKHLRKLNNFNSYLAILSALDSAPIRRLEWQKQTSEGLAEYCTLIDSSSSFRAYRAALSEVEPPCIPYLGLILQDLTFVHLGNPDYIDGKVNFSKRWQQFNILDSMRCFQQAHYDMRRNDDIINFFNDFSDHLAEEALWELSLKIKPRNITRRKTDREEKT


Key:
[1] = target: T4, CrkL (full-length) (human, UniProt P46109 1-303); test: fluorescence polarisation; fluorescein-labelled peptide at 0.2 µM titrated with CrkL or CrkL W160S; 20 mM Tris-HCl, 150 mM NaCl, pH 7.5, 0.1 mg/ml BSA; 1:1 binding model; apparent kd; conditions: both partners purified
T4 construct: human CrkL, residues 1-303, in pETEV15b; also called Crk-like protein; source: E. coli BL21 (DE3), purified (IMAC, TEV digestion, SEC); not shown: His, N-terminal, cleaved
T4 sequence (P46109 whole entry, the tested form may be a part): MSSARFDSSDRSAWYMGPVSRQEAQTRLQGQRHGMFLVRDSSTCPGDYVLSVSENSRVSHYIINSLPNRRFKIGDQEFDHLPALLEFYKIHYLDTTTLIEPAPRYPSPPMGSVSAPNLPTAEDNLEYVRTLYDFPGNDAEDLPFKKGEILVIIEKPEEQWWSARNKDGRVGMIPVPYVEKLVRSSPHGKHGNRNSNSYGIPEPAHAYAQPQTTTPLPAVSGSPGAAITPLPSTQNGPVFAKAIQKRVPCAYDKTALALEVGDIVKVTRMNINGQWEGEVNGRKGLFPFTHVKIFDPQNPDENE

[2] = target: T5, CrkL-W160S (human, UniProt P46109 1-303, W160S); test: as above; conditions: both partners purified
T5 construct: human CrkL, residues 1-303, point mutant W160S, in pETEV15b; source: E. coli BL21 (DE3), purified (IMAC, TEV digestion, SEC); not shown: His, N-terminal, cleaved
T5 sequence (P46109 whole entry W160S, the tested form may be a part): as the sequence (P46109 whole entry, the tested form may be a part) above, with W160S counted along it

[3] = target: T6, CrkL, full-length (human) (human, UniProt P46109 1-303); test: ITC; single-PRM mutants of C3G in the cell titrated with full-length CrkL or CrkL-SH3N; 25 °C; 1:1 model in SEDPHAT; N is the competent fraction of C3G; conditions: both partners purified
T6 construct: Monomer by sedimentation velocity and DLS (theoretical mass 33.7 kDa); Purification 'in a similar manner' as C3G would include TEV cleavage of the tag; also called Crk-like protein; wild type CrkL; source: E. coli BL21 (DE3), purified (His-tagged, purified in a similar manner as C3G)

[4] = target: T1, C3G (full-length, residues 4-1077); test: ITC; C3G or pC3G in the cell titrated with the Crk protein, 25 °C, 300 mM NaCl, pH 7.5; global fit of three titrations with SEDPHAT, three symmetric binding sites, microscopic kd; conditions: both partners purified
[5] = target: T2, Src-phosphorylated C3G (pC3G), wild type; test: cell-based or functional assay
[6] = target: T3, C3G full-length wild type (human, …); test: cell-based or functional assay

| Kd [1] [µM] | Kd [2] [µM] | also measured | Binder |
| --- | --- | --- | --- |
| 3 | ~415 | – | fluorescein-LAPPPALPPKQRQL (P4 Pro-rich motif of human C3G, residues 605-618; also called P4 peptide of C3G; source: synthetic peptide (custom synthesized, Thermo Scientific)) [P4 (Fluo-605-618)] |
| 2.2 | ~425 | – | fluorescein-PEKPPPLPEKKNKH (P3 Pro-rich motif of human C3G, residues 537-550; also called P3 peptide of C3G; source: synthetic peptide (custom synthesized, Thermo Scientific)) [P3 (Fluo-537-550)] |
| 2.2 | > 4000 | – | fluorescein-TDTPPALPEKKRRS (P2 Pro-rich motif of human C3G, residues 450-463; also called P2 peptide of C3G; source: synthetic peptide (custom synthesized, Thermo Scientific)) [P2 (Fluo-450-463)] |
| – | – | Kd [3]: ~1 µM | C3G-PAAA (natural protein) DSQRSHLSSFTMKLMDKFHSPKIKRTPSKKGKPAEVSVKIPEKPVNKEATDRFLPEGYPLPLDLEQQAVEFMSTSAVASRSQRQKNLSWLEEKEKEVVSALRYFKTIVDKMAIDKKVLEMLPGSASKVLEAILPLVQNDPRIQHSSALSSCYSRVYQSLANLIRWSDQVMLEGVNSEDKEMVTTVKGVIKAVLDGVKELVRLTIEKQGRPSPTSPVKPSSPASKPDGPAELPLTDREVEILNKTTGMSQSTELLPDATDEEVAPPKPPLPGIRVVDNSPPPALPPKKRQSAPSPTRVAVVAPMSRATSGSSLPVGINRQDFDVDCYAQRRLSGGSHSYGGESPRLSPCSSIGKLSKSDEQLSSLDRDSGQCSRNTSCETLDHYDPDYEFLQQDLSNADQIPQQTAWNLSPLPESLGESGSPFLGPPFQLPLGGHPQPDGPLAPGQQTDTAAAAAEAKRRSAASQTADGSGCRVSYERHPSQYDNISGEDLQSTAPIPSVPYAPFAAILPFQHGGSSAPVEFVGDFTAPESTGDPEKAAPAAEAKNKHMLAYMQLLEDYSEPQPSMFYQTPQNEHIYQQKNKLLMEVYGFSDSFSGVDSVQELAPAAAAAPAQRQLEPPAGKDGHPRDPSAVSGVPGKDSRDGSERAPKSPDALESAQSEEEVDELSLIDHNEIMSRLTLKQEGDDGPDVRGGSGDILLVHATETDRKDLVLYCEAFLTTYRTFISPEELIKKLQYRYEKFSPFADTFKKRVSKNTFFVLVRVVDELCLVELTEEILKLLMELVFRLVCNGELSLARVLRKNILDKVDQKKLLRCATSSQPLAARGVAARPGTLHDFHSHEIAEQLTLLDAELFYKIEIPEVLLWAKEQNEEKSPNLTQFTEHFNNMSYWVRSIIMLQEKAQDRERLLLKFIKIMKHLRKLNNFNSYLAILSALDSAPIRRLEWQKQTSEGLAEYCTLIDSSSSFRAYRAALSEVEPPCIPYLGLILQDLTFVHLGNPDYIDGKVNFSKRWQQFNILDSMRCFQQAHYDMRRNDDIINFFNDFSDHLAEEALWELSLKIKPRNITRRKTDREEKT |
| – | – | Kd [4]: 2.2 µM | CrkL-SH2-SH3N (domain or fragment, human, UniProt P46109 1-182, looked up, human CrkL, SH2-SH3N, residues 1-182, in pETEV15b; also called CrkL-SH2N-SH3N; source: E. coli BL21 (DE3), purified (IMAC, TEV digestion, SEC); not shown: His, N-terminal, cleaved) MSSARFDSSDRSAWYMGPVSRQEAQTRLQGQRHGMFLVRDSSTCPGDYVLSVSENSRVSHYIINSLPNRRFKIGDQEFDHLPALLEFYKIHYLDTTTLIEPAPRYPSPPMGSVSAPNLPTAEDNLEYVRTLYDFPGNDAEDLPFKKGEILVIIEKPEEQWWSARNKDGRVGMIPVPYVEKLV |
| – | – | AC50 of the dose-response activation of the GEF activity of pC3G (0.2 µM) on Rap1b:mant-dGDP [5]: 4.9 µM; kmax of the dose-response activation of the GEF activity of pC3G (0.2 µM) on Rap1b:mant-dGDP [5]: 0.0377 s^-1 µM^-1; AC50 of the dose-response activation of the GEF activity of C3G (1 µM) on Rap1b:mant-dGDP [6]: 15.8 µM; kmax of the dose-response activation of the GEF activity of C3G (1 µM) on Rap1b:mant-dGDP [6]: 8400 M⁻¹ s⁻¹ | CrkL-SH2-SH3N (residues 1-182) (domain or fragment, human, UniProt P46109 1-182, looked up) MSSARFDSSDRSAWYMGPVSRQEAQTRLQGQRHGMFLVRDSSTCPGDYVLSVSENSRVSHYIINSLPNRRFKIGDQEFDHLPALLEFYKIHYLDTTTLIEPAPRYPSPPMGSVSAPNLPTAEDNLEYVRTLYDFPGNDAEDLPFKKGEILVIIEKPEEQWWSARNKDGRVGMIPVPYVEKLV |

— paper PMC9896810, “Crk proteins activate the Rap1 guanine nucleotide exchange factor C3G by segregated adaptor-dependent and -independent mechanisms” (Cell Communication and Signaling : CCS, 2023)
